Measured values taken from US20170218352.
Where two headings read alike, the source gives them in different places.

How the values were obtained:
[1] = tested on: N-(3[2-furyl]acryloyl)-Leu-Gly-Pro-Ala
[2] = tested on: fluorescently labeled type I collagen (FITC-collagen)
type I collagen [3] = tested on: type I collagen
type II collagen [4] = tested on: type II collagen
type III collagen [5] = tested on: type III collagen
type IV collagen [6] = tested on: type IV collagen
type V collagen [7] = tested on: type V collagen
type VI collagen [8] = tested on: type VI collagen
[9] = target: T1, N-(3[2-furyl]acryloyl)-Leu-Gly-Pro-Ala
T1 chain: LGPA

[10] = target: fluorescently labeled type I collagen (FITC-collagen); remark: listed apart in the source
type I collagen [11] = target: type I collagen; remark: listed apart in the source
type II collagen [12] = target: type II collagen; remark: listed apart in the source
type III collagen [13] = target: type III collagen; remark: listed apart in the source
type IV collagen [14] = target: type IV collagen; remark: listed apart in the source
type V collagen [15] = target: type V collagen; remark: listed apart in the source
type VI collagen [16] = target: type VI collagen; remark: listed apart in the source

**Q.** With “collagenase derived from Clostridium histolyticum (manufactured by Roche Applied Science, trade name "Liberase C/T")” as the molecule, how does the Maximum rate [1] read?
**A.** 0.2 mM/s

**Q.** What about the Michaelis constant [1] of the same molecule?
**A.** 2.03 mM

**Q.** And the Molecular activity [1]?
**A.** 22.2 s⁻¹

**Q.** What about the Specific activity [1] of the same molecule?
**A.** 2.6 U/mg

**Q.** And the Maximum rate [2]?
**A.** 0.00016 mM/s

**Q.** And the Michaelis constant [2]?
**A.** 0.0019 mM

**Q.** And the Molecular activity [2]?
**A.** 18.7 s⁻¹

**Q.** And the Specific activity [2]?
**A.** 1770 U/mg

**Q.** What about the “disappearance of collagen bands on electrophoresis after incubation” value (“disappearance of collagen bands” for short) (type I collagen [3]) of the same molecule?
**A.** the recombinant 62 kDa collagenase seems to more rapidly digest the type I collagen than liberase

**Q.** What about the “disappearance of collagen bands” value (type II collagen [4]) of the same molecule?
**A.** This tendency was also similarly observed for the type II, type III, type IV, type V, and type VI collagens

**Q.** And the “disappearance of collagen bands” value (type III collagen [5])?
**A.** This tendency was also similarly observed for the type II, type III, type IV, type V, and type VI collagens

**Q.** What about the “disappearance of collagen bands” value (type IV collagen [6]) of the same molecule?
**A.** the bands do not disappear when the liberase is used

**Q.** And the “disappearance of collagen bands” value (type V collagen [7])?
**A.** the bands do not disappear when the liberase is used

**Q.** What about the “disappearance of collagen bands” value (type VI collagen [8]) of the same molecule?
**A.** the band does not disappear when the liberase is used

B1: recombinant 62 kDa collagenase (Grimontia hollisae-derived recombinant collagenase) (protein)
chain: AVEQCDLSQFQTTSSNQLMAAIRQQGASCVNALFSADTGVQEAAFSSNHMYNVAQYTRTLAQQYAGGGSDELEALYLYLRAGYYAEFYNSNITFLSWVTPAVKGAVDAFVQNAHFYDNGDAHGKVLNEVIITMDSAGLQHAYLDVVTQWLTRWNAQYAEHWYMRNAVNGVFTLLFGGQWNNQYTSLIGEQTALVTALQAFALDRTKVNSPTEFMAANAARELGRLARYTDATIAPKVTEGLTAIFGQYPSYGDGDAIWLGAADTASYYADCSQFNICGFEDALRDAALNQTFICSDTIKIRSQDMSQAQHLAACDKMAYEESFFHTTLETGNQPVADDHNTQLQVNIFNSDTDYGKYAGPIFGIDTNNGGMYLEGNPANVGNIPNFIAYEASYANPDHFVWNLEHEYVHYLDGRFNMYGDFGTPTELVVWWSEGVAEYVSRVNDNPQAIATIQDGSTYTLAQVFDTTYDGFDVDRIYRWGYLAVRFMFERHPDEVQRMLSATRQGRWAEYKAIISGWANQYQSEFAQWTEALAKGDSGAGNGEGTGSGNEGGGESGGNT
**Q.** B1 was tested. Which Maximum rate [9] did it give?
**A.** 0.6 mM/s

**Q.** What about the Michaelis constant [9] of the same molecule?
**A.** 2.28 mM

**Q.** And the Molecular activity [9]?
**A.** 37.5 s⁻¹

**Q.** And the Specific activity [9]?
**A.** 9.39 U/mg

**Q.** What about the Maximum rate [10] of the same molecule?
**A.** 0.00041 mM/s

**Q.** What about the Michaelis constant [10] of the same molecule?
**A.** 0.0011 mM

**Q.** And the Molecular activity [10]?
**A.** 25.1 s⁻¹

**Q.** And the Specific activity [10]?
**A.** 5490 U/mg

**Q.** And the “specific activity (from immediately after the purification to 24 hours)” value [10]?
**A.** 12,000 (U/mg)

**Q.** What about the “disappearance of collagen bands” value (type I collagen [11]) of the same molecule?
**A.** the recombinant 62 kDa collagenase seems to more rapidly digest the type I collagen than liberase

**Q.** What about the “disappearance of collagen bands” value (type II collagen [12]) of the same molecule?
**A.** This tendency was also similarly observed for the type II, type III, type IV, type V, and type VI collagens

**Q.** What about the “disappearance of collagen bands” value (type III collagen [13]) of the same molecule?
**A.** This tendency was also similarly observed for the type II, type III, type IV, type V, and type VI collagens

**Q.** What about the “disappearance of collagen bands” value (type IV collagen [14]) of the same molecule?
**A.** the band become weaker when the recombinant 62 kDa collagenase is used to react for three hours or five hours

**Q.** What about the “disappearance of collagen bands” value (type V collagen [15]) of the same molecule?
**A.** the band become weaker when the recombinant 62 kDa collagenase is used to react for three hours or five hours

**Q.** What about the “disappearance of collagen bands” value (type VI collagen [16]) of the same molecule?
**A.** the band become weaker when the recombinant 62 kDa collagenase is used to react for 72 hours

B2: 74 kDa collagenase (Grimontia hollisae-derived collagenase lacking the prepro region) (protein)
chain: AVEQCDLSQFQTTSSNQLMAAIRQQGASCVNALFSADTGVQEAAFSSNHMYNVAQYTRTLAQQYAGGGSDELEALYLYLRAGYYAEFYNSNITFLSWVTPAVKGAVDAFVQNAHFYDNGDAHGKVLNEVIITMDSAGLQHAYLDVVTQWLTRWNAQYAEHWYMRNAVNGVFTLLFGGQWNNQYTSLIGEQTALVTALQAFALDRTKVNSPTEFMAANAARELGRLARYTDATIAPKVTEGLTAIFGQYPSYGDGDAIWLGAADTASYYADCSQFNICGFEDALRDAALNQTFICSDTIKIRSQDMSQAQHLAACDKMAYEESFFHTTLETGNQPVADDHNTQLQVNIFNSDTDYGKYAGPIFGIDTNNGGMYLEGNPANVGNIPNFIAYEASYANPDHFVWNLEHEYVHYLDGRFNMYGDFGTPTELVVWWSEGVAEYVSRVNDNPQAIATIQDGSTYTLAQVFDTTYDGFDVDRIYRWGYLAVRFMFERHPDEVQRMLSATRQGRWAEYKAIISGWANQYQSEFAQWTEALAKGDSGAGNGEGTGSGNEGGGESGGNTGLPENCAVLPKISDGRLALDEAACLADTASASDVLWFSIPAVSEYQTIAITAGNGTGDLTLEYSNLNWPDGTNVQASSANMGNSECIILEHQANYWGYLKVSGSFENAALLVEAGSNQCRQ
**Q.** With B2 as the molecule, how does the “specific activity (24 hours after the purification)” value [10] read?
**A.** 11,500 (U/mg)

**Q.** What about the “specific activity (immediately after the purification)” value [10] of the same molecule?
**A.** 18,000 (U/mg)

B3: recombinant 60 kDa collagenase (Grimontia hollisae-derived recombinant collagenase) (protein)
chain: AVEQCDLSQFQTTSSNQLMAAIRQQGASCVNALFSADTGVQEAAFSSNHMYNVAQYTRTLAQQYAGGGSDELEALYLYLRAGYYAEFYNSNITFLSWVTPAVKGAVDAFVQNAHFYDNGDAHGKVLNEVIITMDSAGLQHAYLDVVTQWLTRWNAQYAEHWYMRNAVNGVFTLLFGGQWNNQYTSLIGEQTALVTALQAFALDRTKVNSPTEFMAANAARELGRLARYTDATIAPKVTEGLTAIFGQYPSYGDGDAIWLGAADTASYYADCSQFNICGFEDALRDAALNQTFICSDTIKIRSQDMSQAQHLAACDKMAYEESFFHTTLETGNQPVADDHNTQLQVNIFNSDTDYGKYAGPIFGIDTNNGGMYLEGNPANVGNIPNFIAYEASYANPDHFVWNLEHEYVHYLDGRFNMYGDFGTPTELVVWWSEGVAEYVSRVNDNPQAIATIQDGSTYTLAQVFDTTYDGFDVDRIYRWGYLAVRFMFERHPDEVQRMLSATRQGRWAEYKAIISGWANQYQSEFAQWTEALAKGDS
**Q.** Which “specific activity (from immediately after the purification to 24 hours)” value [10] does the source give for B3 here?
**A.** 12,000 (U/mg)
